What was measured:
[1] = biological target: mouse trkC (on E11 mouse trigeminal neurons) (mouse) (UniProt Q6VNS1); assay: cell-based or functional assay
[2] = biological target: rat trkC (on E12 rat trigeminal neurons) (rat) (UniProt Q03351); assay: cell-based or functional assay
rat trkC (on E12 rat trigeminal neurons) (rat), sequence (Q03351 32-864): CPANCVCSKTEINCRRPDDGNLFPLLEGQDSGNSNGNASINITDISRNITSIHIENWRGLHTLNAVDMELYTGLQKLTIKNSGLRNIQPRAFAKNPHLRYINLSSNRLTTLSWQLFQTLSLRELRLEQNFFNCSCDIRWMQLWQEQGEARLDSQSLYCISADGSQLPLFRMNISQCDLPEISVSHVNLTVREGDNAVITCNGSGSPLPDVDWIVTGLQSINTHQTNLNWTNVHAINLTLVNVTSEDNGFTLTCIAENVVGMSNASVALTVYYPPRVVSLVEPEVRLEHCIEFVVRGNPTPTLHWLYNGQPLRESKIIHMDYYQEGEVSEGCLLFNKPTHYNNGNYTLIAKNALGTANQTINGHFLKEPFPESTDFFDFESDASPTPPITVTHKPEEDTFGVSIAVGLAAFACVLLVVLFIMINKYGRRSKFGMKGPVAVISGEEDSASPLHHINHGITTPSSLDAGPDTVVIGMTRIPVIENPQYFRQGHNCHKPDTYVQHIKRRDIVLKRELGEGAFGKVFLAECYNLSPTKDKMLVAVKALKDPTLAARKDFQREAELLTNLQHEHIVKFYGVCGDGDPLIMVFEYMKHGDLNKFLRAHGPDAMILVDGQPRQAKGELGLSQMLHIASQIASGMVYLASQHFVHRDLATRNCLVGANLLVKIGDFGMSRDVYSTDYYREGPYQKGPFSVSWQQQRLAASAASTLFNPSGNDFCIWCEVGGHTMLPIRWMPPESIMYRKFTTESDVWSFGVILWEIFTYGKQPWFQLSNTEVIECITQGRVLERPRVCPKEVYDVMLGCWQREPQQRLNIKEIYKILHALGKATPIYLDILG

mouse trkC (on E11 mouse trigeminal neurons) (mouse), sequence (Q6VNS1 32-825): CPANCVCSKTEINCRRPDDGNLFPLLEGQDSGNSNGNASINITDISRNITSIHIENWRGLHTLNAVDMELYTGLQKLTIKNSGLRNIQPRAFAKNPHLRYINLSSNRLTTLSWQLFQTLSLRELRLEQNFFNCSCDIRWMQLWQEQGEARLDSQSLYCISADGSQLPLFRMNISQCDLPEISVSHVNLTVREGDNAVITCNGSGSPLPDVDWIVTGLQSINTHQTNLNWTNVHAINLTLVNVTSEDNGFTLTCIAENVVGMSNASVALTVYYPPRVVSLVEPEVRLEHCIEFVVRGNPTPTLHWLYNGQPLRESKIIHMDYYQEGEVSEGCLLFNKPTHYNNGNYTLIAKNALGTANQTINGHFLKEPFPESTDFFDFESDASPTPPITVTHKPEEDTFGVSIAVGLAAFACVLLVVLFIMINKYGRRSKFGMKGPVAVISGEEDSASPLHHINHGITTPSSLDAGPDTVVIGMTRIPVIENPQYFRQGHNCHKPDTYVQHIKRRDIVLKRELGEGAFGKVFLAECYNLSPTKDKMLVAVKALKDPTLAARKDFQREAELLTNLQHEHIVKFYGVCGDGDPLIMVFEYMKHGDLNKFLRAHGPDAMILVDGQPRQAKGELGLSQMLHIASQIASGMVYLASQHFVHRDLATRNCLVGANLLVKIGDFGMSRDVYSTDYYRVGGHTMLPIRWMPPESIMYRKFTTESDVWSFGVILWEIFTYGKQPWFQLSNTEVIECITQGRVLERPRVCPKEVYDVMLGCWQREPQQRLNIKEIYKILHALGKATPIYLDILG

neurotrophin-3 (NT-3) (ligand)
survival of trigeminal neurons after 24 hours in culture [1]: 0.08 ng/mL
survival of trigeminal neurons after 24 hours in culture [2]: 0.08 ng/mL
